Experimental data reported in patent publication US10072252B2 (priority 2013, dated 2018).

Legend:
[1] = tested on: 3-oxo-C12 AHL; format: cell-based, Pseudomonas aeruginosa
[2] = tested on: lasB transcription; format: cell-based, P. aeruginosa
[3] = tested on: P. aeruginosa PAO1 biofilm formation; format: cell-based
[4] = tested on: P. aeruginosa PAO1; settings: in vivo
[5] = rat, in vivo
[6] = format: physicochemical; settings: pH 8
[7] = tested on: sea urchins larvae (Paracentrotus lividus); settings: in vivo

Molecule	relative lactonase activity in screening (3-oxo-C12 AHL hydrolysis) [1]	half inhibition concentration ([C1/2]) of lasB transcription [2]	[C1/2] of inhibition of biofilm formation [3]	mean time to death [4]	mortality rate [4]	acute inflammatory reactions in the respiratory parenchyma [5]	histological analysis of lungs [5]	macroscopic aspect of lungs removed after treatment [5]	spontaneous mortality [5]	tolerance of tracheal instillation [5]	melting temperature [6]	effects on viability and development [7]
SsoPox W263I: SEQ ID NO: 3 with substitution of tryptophan W in position 263 by isoleucine I (protein, listed as Sulfolobus solfataricus) MRIPLVGKDSIESKDIGFTLIHEHLRVFSEAVRQQWPHLYNEDEEFRNAVNEVKRAMQFGVKTIVDPTVMGLGRDIRFMEKVVKATGINLVAGTGIYIYIDLPFYFLNRSIDEIADLFIHDIKEGIQGTLNKAGFVKIAADEPGITKDVEKVIRAAAIANKETKVPIITHSNAHNNTGLEQQRILTEEGVDPGKILIGHLGDTDNIDYIKKIADKGSFIGLDRYGLDLFLPVDKRNETTLRLIKDGYSDKIMISHDYCCTIDIGTAKPEYKPKLAPRWSITLIFEDTIPFLKRNGVNEEVIATIFKENPKKFFS	selected for a potential lactonase activity improvement	around 0.5 μg/mL	approximately 170 μg/mL	37 ± 13 h	20%	no observable acute inflammatory reactions	normal lung parenchyma	no macroscopic signs of injury	no spontaneous mortality was observed	well tolerated	87.8±1.2 °C	–
SsoPox: SsoPox enzyme tested for ecotoxicity; variant not specified (protein, UniProt Q97VT7 1-314, looked up) Aryldialkylphosphatase: MRIPLVGKDSIESKDIGFTLIHEHLRVFSEAVRQQWPHLYNEDEEFRNAVNEVKRAMQFGVKTIVDPTVMGLGRDIRFMEKVVKATGINLVAGTGIYIYIDLPFYFLNRSIDEIADLFIHDIKEGIQGTLNKAGFVKIAADEPGITKDVEKVIRAAAIANKETKVPIITHSNAHNNTGLEQQRILTEEGVDPGKILIGHLGDTDNIDYIKKIADKGSFIGLDRYGLDLFLPVDKRNETTLRLIKDGYSDKIMISHDYCCTIDWGTAKPEYKPKLAPRWSITLIFEDTIPFLKRNGVNEEVIATIFKENPKKFFS	–	–	–	–	–	–	–	–	–	–	–	no effects have been observed
